Ends that are not written are not given here. * marks the point of attachment. Stearoyl = CCCCCCCCCCCCCCCCCC(=O)*; Palmitoyl = CCCCCCCCCCCCCCCC(=O)*; Myristoyl = CCCCCCCCCCCCCC(=O)*; Lauroyl = CCCCCCCCCCCC(=O)*; Dodecyl = CCCCCCCCCCCC*
T1: human GIP receptor (human, UniProt P48546 22-466)
T1 sequence (looked up): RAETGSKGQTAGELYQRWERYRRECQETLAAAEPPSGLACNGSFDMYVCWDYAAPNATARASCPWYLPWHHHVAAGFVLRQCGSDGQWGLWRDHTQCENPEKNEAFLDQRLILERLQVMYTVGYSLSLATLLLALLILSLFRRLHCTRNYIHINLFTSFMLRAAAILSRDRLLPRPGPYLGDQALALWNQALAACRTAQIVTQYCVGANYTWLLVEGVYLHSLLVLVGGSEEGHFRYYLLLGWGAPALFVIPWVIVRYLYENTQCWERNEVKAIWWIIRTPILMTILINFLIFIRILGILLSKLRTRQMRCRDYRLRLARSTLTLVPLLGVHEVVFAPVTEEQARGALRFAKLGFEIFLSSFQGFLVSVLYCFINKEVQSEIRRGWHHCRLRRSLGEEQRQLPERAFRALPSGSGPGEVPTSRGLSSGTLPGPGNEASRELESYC


biological target: T1, human GIP receptor; assay: cell-based or functional assay

Binder | cAMP agonism, Emax | cAMP antagonism, log (IC50) | cAMP antagonism, nM (IC50) | cAMP agonism, EC50 (log) | cAMP agonism, nM (EC50)
EGTFISDYSIAMDRIK(Palmitoyl)QQDFVNWLLAQR-NH2 (N-terminus assumed; SMILES CCCCCCCCCCCCCCCC(=O)NCCCC[C@H](NC(=O)[C@@H](NC(=O)[C@H](CCCNC(=N)N)NC(=O)[C@H](CC(=O)O)NC(=O)[C@H](CCSC)NC(=O)[C@H](C)NC(=O)[C@@H](NC(=O)[C@H](CO)NC(=O)[C@H](Cc1ccc(O)cc1)NC(=O)[C@H](CC(=O)O)NC(=O)[C@H](CO)NC(=O)[C@@H](NC(=O)[C@H](Cc1ccccc1)NC(=O)[C@@H](NC(=O)CNC(=O)[C@@H](N)CCC(=O)O)[C@@H](C)O)[C@@H](C)CC)[C@@H](C)CC)[C@@H](C)CC)C(=O)N[C@@H](CCC(N)=O)C(=O)N[C@@H](CCC(N)=O)C(=O)N[C@@H](CC(=O)O)C(=O)N[C@@H](Cc1ccccc1)C(=O)N[C@H](C(=O)N[C@@H](CC(N)=O)C(=O)N[C@@H](Cc1c[nH]c2ccccc12)C(=O)N[C@@H](CC(C)C)C(=O)N[C@@H](CC(C)C)C(=O)N[C@@H](C)C(=O)N[C@@H](CCC(N)=O)C(=O)N[C@@H](CCCNC(=N)N)C(N)=O)C(C)C) [AT144 [hGIP(3-30)NH2[K16R; H18K; K30R]-C16/18]] | 0% | -7.3 log M | 53.3 nM |  | 
Myristoyl-EGTFISDYSIAMDKIHQQDFVNWLLAQK-NH2 [AT110 [hGIP(3-30)NH2-C14/3]] | 64% |  |  | -8.4 log M | 3.6 nM
EGTFISDYSIAMDKIHQQDFVNWLLAQK(Stearoyl)-NH2 [AT115 [hGIP(3-30)NH2-C18/30]] |  |  |  | -6.9 log M | 134 nM
EGTFISDYSIAMDKIHQQDFVNWLLAQK(Palmitoyl)-NH2 [AT106 [hGIP(3-30)NH2-C16/30]] | 64% |  |  | -6.4 log M | 390 nM
EGTFISDYSIAMDKIK(Palmitoyl)QQDFVNWLLAQK-NH2 (N-terminus assumed; SMILES CCCCCCCCCCCCCCCC(=O)NCCCC[C@H](NC(=O)[C@@H](NC(=O)[C@H](CCCCN)NC(=O)[C@H](CC(=O)O)NC(=O)[C@H](CCSC)NC(=O)[C@H](C)NC(=O)[C@@H](NC(=O)[C@H](CO)NC(=O)[C@H](Cc1ccc(O)cc1)NC(=O)[C@H](CC(=O)O)NC(=O)[C@H](CO)NC(=O)[C@@H](NC(=O)[C@H](Cc1ccccc1)NC(=O)[C@@H](NC(=O)CNC(=O)[C@@H](N)CCC(=O)O)[C@@H](C)O)[C@@H](C)CC)[C@@H](C)CC)[C@@H](C)CC)C(=O)N[C@@H](CCC(N)=O)C(=O)N[C@@H](CCC(N)=O)C(=O)N[C@@H](CC(=O)O)C(=O)N[C@@H](Cc1ccccc1)C(=O)N[C@H](C(=O)N[C@@H](CC(N)=O)C(=O)N[C@@H](Cc1c[nH]c2ccccc12)C(=O)N[C@@H](CC(C)C)C(=O)N[C@@H](CC(C)C)C(=O)N[C@@H](C)C(=O)N[C@@H](CCC(N)=O)C(=O)N[C@@H](CCCCN)C(N)=O)C(C)C) [AT117 [hGIP(3-30)NH2[H18K]-C16/18]] | 0% | -7.8 log M | 15 nM |  | 
EGTFISDYSIAMDK(Stearoyl)IHQQDFVNWLLAQK-NH2 [AT114 [hGIP(3-30)NH2-C18/16]] | 39% | -7.2 log M | 46 nM | -5.5 log M | 2960 nM
EGTFISDYSIAMEK(Palmitoyl)IAQQDFVNWLLAQK-NH2 (N-terminus assumed; SMILES CCCCCCCCCCCCCCCC(=O)NCCCC[C@H](NC(=O)[C@H](CCC(=O)O)NC(=O)[C@H](CCSC)NC(=O)[C@H](C)NC(=O)[C@@H](NC(=O)[C@H](CO)NC(=O)[C@H](Cc1ccc(O)cc1)NC(=O)[C@H](CC(=O)O)NC(=O)[C@H](CO)NC(=O)[C@@H](NC(=O)[C@H](Cc1ccccc1)NC(=O)[C@@H](NC(=O)CNC(=O)[C@@H](N)CCC(=O)O)[C@@H](C)O)[C@@H](C)CC)[C@@H](C)CC)C(=O)N[C@H](C(=O)N[C@@H](C)C(=O)N[C@@H](CCC(N)=O)C(=O)N[C@@H](CCC(N)=O)C(=O)N[C@@H](CC(=O)O)C(=O)N[C@@H](Cc1ccccc1)C(=O)N[C@H](C(=O)N[C@@H](CC(N)=O)C(=O)N[C@@H](Cc1c[nH]c2ccccc12)C(=O)N[C@@H](CC(C)C)C(=O)N[C@@H](CC(C)C)C(=O)N[C@@H](C)C(=O)N[C@@H](CCC(N)=O)C(=O)N[C@@H](CCCCN)C(N)=O)C(C)C)[C@@H](C)CC) [AT131 [hGIP(3-30)NH2[D15E; H18A]-C16/16]] | 35% | -7.4 log M | 65 nM | -4.9 log M | 11800 nM
EGTFISDYSIAMEKIAQQDFVNWLLAQK(Dodecyl)-NH2 [AT130 [hGIP(3-30)NH2[D15E; H18A]-C12/30]] | 49% |  |  | -5.1 log M | 8690 nM
Stearoyl-EGTFISDYSIAMDKIHQQDFVNWLLAQK-NH2 [AT113 [hGIP(3-30)NH2-C18/3]] | 77% |  |  | -8 log M | 9.9 nM
EGTFISDYSIAMDK(Palmitoyl)IHQQDFVNWLLAQK-NH2 [AT105 [hGIP(3-30)NH2-C16/16]] | 34% | -7.6 log M | 24 nM | -5.9 log M | 1140 nM
EGTFISDYSIAMDKIHQQDFVNWLLAQK(Myristoyl)-NH2 [AT112 [hGIP(3-30)NH2-C14/30]] | 29% |  |  | -5.4 log M | 3950 nM
EGWFISDYSIAMEK(Palmitoyl)IAQQDFVNWLLAQK-NH2 (N-terminus assumed; SMILES CCCCCCCCCCCCCCCC(=O)NCCCC[C@H](NC(=O)[C@H](CCC(=O)O)NC(=O)[C@H](CCSC)NC(=O)[C@H](C)NC(=O)[C@@H](NC(=O)[C@H](CO)NC(=O)[C@H](Cc1ccc(O)cc1)NC(=O)[C@H](CC(=O)O)NC(=O)[C@H](CO)NC(=O)[C@@H](NC(=O)[C@H](Cc1ccccc1)NC(=O)[C@H](Cc1c[nH]c2ccccc12)NC(=O)CNC(=O)[C@@H](N)CCC(=O)O)[C@@H](C)CC)[C@@H](C)CC)C(=O)N[C@H](C(=O)N[C@@H](C)C(=O)N[C@@H](CCC(N)=O)C(=O)N[C@@H](CCC(N)=O)C(=O)N[C@@H](CC(=O)O)C(=O)N[C@@H](Cc1ccccc1)C(=O)N[C@H](C(=O)N[C@@H](CC(N)=O)C(=O)N[C@@H](Cc1c[nH]c2ccccc12)C(=O)N[C@@H](CC(C)C)C(=O)N[C@@H](CC(C)C)C(=O)N[C@@H](C)C(=O)N[C@@H](CCC(N)=O)C(=O)N[C@@H](CCCCN)C(N)=O)C(C)C)[C@@H](C)CC) [AT107 [hGIP(3-30)NH2[T5W; D15E; H18A]-C16/16]] | 23% | -7.1 log M | 77 nM | -5.9 log M | 1300 nM
EGTFISDYSIAMDKIK(Lauroyl)QQDFVNWLLAQK-NH2 (N-terminus assumed; SMILES CCCCCCCCCCCC(=O)NCCCC[C@H](NC(=O)[C@@H](NC(=O)[C@H](CCCCN)NC(=O)[C@H](CC(=O)O)NC(=O)[C@H](CCSC)NC(=O)[C@H](C)NC(=O)[C@@H](NC(=O)[C@H](CO)NC(=O)[C@H](Cc1ccc(O)cc1)NC(=O)[C@H](CC(=O)O)NC(=O)[C@H](CO)NC(=O)[C@@H](NC(=O)[C@H](Cc1ccccc1)NC(=O)[C@@H](NC(=O)CNC(=O)[C@@H](N)CCC(=O)O)[C@@H](C)O)[C@@H](C)CC)[C@@H](C)CC)[C@@H](C)CC)C(=O)N[C@@H](CCC(N)=O)C(=O)N[C@@H](CCC(N)=O)C(=O)N[C@@H](CC(=O)O)C(=O)N[C@@H](Cc1ccccc1)C(=O)N[C@H](C(=O)N[C@@H](CC(N)=O)C(=O)N[C@@H](Cc1c[nH]c2ccccc12)C(=O)N[C@@H](CC(C)C)C(=O)N[C@@H](CC(C)C)C(=O)N[C@@H](C)C(=O)N[C@@H](CCC(N)=O)C(=O)N[C@@H](CCCCN)C(N)=O)C(C)C) [AT116 [hGIP(3-30)NH2-C12/18]] | 0% | -7.9 log M | 12 nM |  | 
EGTFISDYSIALDKIK(Palmitoyl)QQDFVNWLLAQK-NH2 (N-terminus assumed; SMILES CCCCCCCCCCCCCCCC(=O)NCCCC[C@H](NC(=O)[C@@H](NC(=O)[C@H](CCCCN)NC(=O)[C@H](CC(=O)O)NC(=O)[C@H](CC(C)C)NC(=O)[C@H](C)NC(=O)[C@@H](NC(=O)[C@H](CO)NC(=O)[C@H](Cc1ccc(O)cc1)NC(=O)[C@H](CC(=O)O)NC(=O)[C@H](CO)NC(=O)[C@@H](NC(=O)[C@H](Cc1ccccc1)NC(=O)[C@@H](NC(=O)CNC(=O)[C@@H](N)CCC(=O)O)[C@@H](C)O)[C@@H](C)CC)[C@@H](C)CC)[C@@H](C)CC)C(=O)N[C@@H](CCC(N)=O)C(=O)N[C@@H](CCC(N)=O)C(=O)N[C@@H](CC(=O)O)C(=O)N[C@@H](Cc1ccccc1)C(=O)N[C@H](C(=O)N[C@@H](CC(N)=O)C(=O)N[C@@H](Cc1c[nH]c2ccccc12)C(=O)N[C@@H](CC(C)C)C(=O)N[C@@H](CC(C)C)C(=O)N[C@@H](C)C(=O)N[C@@H](CCC(N)=O)C(=O)N[C@@H](CCCCN)C(N)=O)C(C)C) [AT143 [hGIP(3-30)NH2[M14L; H18K]-C16/18]] | 40% | -7.8 log M | 15.1 nM | -6.3 log M | 521 nM
EGTFISDYSIAMDK(Myristoyl)IHQQDFVNWLLAQK-NH2 [AT111 [hGIP(3-30)NH2-C14/16]] | 0% | -7.6 log M | 22 nM |  | 
